Our source for the Kd values is patent US11597760 (dated 2023).

Test [1] concerns the target human C5 (human). Kind of test: SPR, pH 5.8, 37C. (In general: In SPR one partner is held on a chip, and binding of the other changes the refractive index at the surface.)
Test [2] addresses human C5 (human). Kind of test: SPR, pH 7.4, 37C.
The target in test [3] is human C5 (human). Kind of test: SPR, pH 5.8, 37C. The source holds these as a separate data set.
Test [4] addresses human C5 (human). As to the kind of experiment: SPR, pH 7.4, 37C. The source holds these as a separate data set.

B1: CFA0330 (antibody, V domains shown)
VH: QSLEESGGDLVEPGASLTLTCTASGFSWNSGYDMCWVRQAPGKGLEWIACIYTGSSANTAYANWAKGRFTISKTSSTTVTLQMTGLTAADTATYFCARHDDYFFDLWGPGTLVTVSS
VL: DVVMTQTPASVSESVGGTVTINCQASQSIGNNLAWYQQKPGQPPKLLIYDASNLASGVPSRFKGSRSGTEPTLTNTLTISGVQCADVATYYCQSGWYGNSYVAAFGGGTEVVVK
B1: the equilibrium dissociation constant (Kd) – broadly, the constant that tells how readily two partners part at equilibrium – with human C5 [1] is 0.184 nM; with human C5 [2] it was 0.122 nM.

B2: CFA0307 (antibody, V domains shown)
VH: QSLEESGGGLVKPGASLTLTCKASGIDFSNFYYICWVRQAPGKGLDLIACIYTVSGYTYYASWAKGRLTISKTSSTTVTLQMTSLTAADTATYFCARDLHAGITNLWGPGTLVTVSS
VL: AIEMTQTPFSVSAAVGGTVTIKCQASQNIYSNLAWYQQKPGQRPKLLIYGASNLESGVPSRFKGSGSGTEYTLTISDLECADAATYYCLQGYSYSNVDDAFGGGTEVVVK
As for B2, the values for the Kd with human C5 [1] and with human C5 [2] were 164 nM and 8.13 nM, respectively.

B3: CFA0341 (antibody, V domains shown)
VH: QSVEESGGRLVTPGTPLTLTCTVSGIDLSSYTMGWVRQAPGKGLECIGYIHSFGSTYYASWAKGRFTISKTSTTVDLEITSPTTEDTATYFCARDVGGSSGWDLWGQGTLVTVSS
VL: DVVMTQTPSSVSAAVGGTVTIKCQASENIYSNLAWYQQKPGQPPKRLIYDASDLASGVPSRFSGSGYGTQFTLTISGVQCEDAATYYCQANYDSTSSSFGNVFGGGTEVVVK
In the case of B3, the figures for the equilibrium dissociation constant (Kd) with human C5 [1] and in the test with human C5 [2] were 0.0595 nM and 0.155 nM, respectively.

B4: CFA0672 (antibody, V domains shown)
VH: QSVEESGGRLVTPGTPLTLTCTASGFSLSGNAINWVRQAPGKGLEWIGCIYTGSDTTYYATWAKGRFTISKTSTTVDLKIASPTTEDTATYFCARGSGLWGPGTLVTVSS
VL: DVVMTQTPASVSAPVGGTVTIKCQASQNIYSLLAWYQQKPGQPPKLLIYHTSDLASGVPSRFRGSGSGTEFTLTISDLECADAATYYCQCTAYGSSDVGGTFGGGTTVVVE
Regarding B4, the figures for the dissociation constant (Kd) in the test with human C5 [1] and in the test with human C5 [2] were 138 nM and 0.351 nM, respectively.

B5: CFA0538 (antibody, V domains shown)
VH: QSVEESGGRLVTPGTPLTLTCTASGFSLSSYYMNWVRQAPGKGLEWIGMIYGSGATYYASWAKGRFTISKTSSTTVDLKMTSLTTEDTATYFCARQIYSGDNNDNFWGPGTLVTVSS
VL: AYDMTQTPASVEVAVGGTVTINCQASESISNWLAWYQQKPGQRPKLLIYRASTLASGVSSRFKGSGSGTQFTLTISGVECDDAATYYCQQDYSSSNVDNTFGGGTTVVVE
As to B5, the Kd was 246 nM with human C5 [1] and 3.91 nM with human C5 [2].

B6: CFA0501 (antibody, V domains shown)
VH: QSVEESGGRLVTPGTPLTLTCTASGFSLSSYYMNWVRQAPGKGLEWIGMIYGSGATYYASWAKGRFTISKTSSTTVDLKMTSLTTEDTATYFCARQIYSGDNNDNFWGPGTLVTVSS
VL: AYDMTQTPASVEVAVGGTVTINCQASESISNWLAWYQQKPGQRPKLLIYRASTLASGVSSRFKGSGSGTQFTLTISGVECDDAATYYCQQDYSSSNVDNTFGGGTKVVVE
Take B6: the Kd stood at 174 nM with human C5 [1] and 3.56 nM in the test with human C5 [2].

B7: CFA0366 (antibody, V domains shown)
VH: QSLEESGGDLVKPGASLSLTCTAAGLDFSSSYYMCWVRQAPGKGLEWIACIYAGSSGIIYYANWAKGRFTISRPSSTTVTLQMTSLTAADTATYFCATYPTYGDGGHAFNLWGPGTLVTVSS
VL: AQVLTQTPSSVSAAVGGTVTINCQSSQSVYSSDYLSWYQQKPGQPPKLLIYEASKLASGVPPRFSGSGSGTQFTLTISGVQCDDAATYYCQGTYYSSGWYFAFGGGTEVVVK
In the case of B7, the Kd with human C5 [1] stood at 75.2 nM; with human C5 [2] it was 8.99 nM.

B8: CFA0599 (antibody, V domains shown)
VH: QSVEESGGRLVTPGTPLTLTCTVSGLSLSDNTMTWVRQAPGKGLEWIGIISFGGDAYYASWAKGRFPISKTSTTVDLRITSPTTEDTATYFCARVGAGNIFWYFDLWGPGTLVTVSS
VL: AYDMTQTPASVEVSVGGTVTIKCQASESIYSALAWYQQKPGQPPKLLIYSASTLASGVPSRFKGSGSGTEYTLTISDLECADAATYYCQQYYSSTNVHNSFGGGTTVVVE
On to B8, for which the Kd came to 82.1 nM in the test with human C5 [1] and 5.93 nM in the test with human C5 [2].

B9: CFA0666 (antibody, V domains shown)
VH: QSVEESGGRLVTPGTPLTLTCTVSGFSLSTYAMGWVRQAPGKGLEWIGTIDTGDNSFYANWAKGRFTISKTSTTVDLKITSPTAEDTATYFCARNDGSVYNLFNLWGPGTLVTVSS
VL: DVVMTQTPASVSAAVGGTVTIKCQASENIYSALSWYQQKPGLRPRLLIYYASTLASGVPSRFKGSRSGTEFTLTISDLECADAATYYCQQYYDINSVDNTFGGGTKVVVE
For the molecule B9, the dissociation constant Kd with human C5 [1] stood at 33.3 nM; in the test with human C5 [2], 1.71 nM.

B10: CFA0675 (antibody, V domains shown)
VH: QSVEESGGRLVTPGTPLTLTCTVSGFSLSTYAMGWVRQAPGKGLEWIGTIDTGDNSFYANWAKGRFTISRTSTTVDLKITSPTAEDTATYFCARNDGSVYNLFNLWGPGTLVTVSS
VL: DVVMTQTPASVSAAVGGTVTIKCQASENIYSALSWYQQKPGLRPRLLIYYASTLASGVPSRFKGSRSGTEFTLTISDLECADAASYYCQQYYDINSVDNTFGGGTKVVVE
For B10, the figures for the dissociation constant Kd with human C5 [1] and in the test with human C5 [2] were 17 nM and 1.08 nM, respectively.

B11: 305LO5 (antibody, V domains shown)
VH: QVQLVESGGGLVQPGGSLRLSCAASGFTSHSSYYVAWVRQAPGKGLEWVGAIYTGSGATYKASWAKGRFTISKDTSKNQVVLTMTNMDPVDTATYYCASDGGYDYPTHAMHYWGQGTLVTVSS
VL: DVVMTQSPSSLSASVGDRVTITCQASQNIGSSLAWYQQKPGQAPRLLIYGASKTHSGVPSRFSGSGSGTDFTLTISSLQPEDVATYYCQSTKVGSSYGNHFGGGTKVEIK
Turning to B11, the Kd in the test with human C5 [1] amounted to 14 nM; with human C5 [2] it was 0.471 nM.

B12: 305LO20-SG115 (antibody, V domains shown)
VH: QVQLVESGGGLVQPGGSLRLSCAASGFTVHSSYYMAWVRQAPGKGLEWVGAIFTGSGAEYKAEWAKGRVTISKDTSKNQVVLTMTNMDPVDTATYYCASDAGYDYPTHAMHYWGQGTLVTVSS
VL: DIQMTQSPSSLSASVGDRVTITCRASQGISSSLAWYQQKPGQAPRLLIYGASETESGVPSRFSGSGSGTDFTLTISSLQPEDFATYYCQNTKVGSSYGNTFGGGTKVEIK
As for B12, the values for the Kd with human C5 [3] and with human C5 [4] were 58.1 nM and 0.324 nM, respectively.

B13: 305LO20-SG422 (antibody, V domains shown)
VH: QVQLVESGGGLVQPGGSLRLSCAASGFTVHSSYYMAWVRQAPGKGLEWVGAIFTGSGAEYKAEWAKGRVTISKDTSKNQVVLTMTNMDPVDTATYYCASDAGYDYPTHAMHYWGQGTLVTVSS
VL: DIQMTQSPSSLSASVGDRVTITCRASQGISSSLAWYQQKPGQAPRLLIYGASETESGVPSRFSGSGSGTDFTLTISSLQPEDFATYYCQNTKVGSSYGNTFGGGTKVEIK
With B13, the Kd with human C5 [3] amounted to 59.9 nM; with human C5 [4], 0.349 nM.

B14: 305LO23-SG115 (antibody, V domains shown)
VH: QVQLVESGGGLVQPGGSLRLSCAASGFTVHSSYYMAWVRQAPGKGLEWVSGIFTGSGATYKAEWAKGRVTISKDTSKNQVVLTMTNMDPVDTATYYCASDAGYDYPTHAMHYWGQGTLVTVSS
VL: DIQMTQSPSSLSASVGDRVTITCRASQGISSSLAWYQQKPGQAPRLLIYGASTTQSGVPSRFSGSGSGTDFTLTISSLQPEDFATYYCQNTKVGSSYGNTFGGGTKVEIK
In the case of B14, the Kd with human C5 [3] stood at 64.1 nM; with human C5 [4], 0.277 nM.

B15: 305LO16-SG422 (antibody, V domains shown)
VH: QVQLVESGGGLVQPGRSLRLSCAASGFTVHSSYYMAWVRQAPGKGLEWVGAIFTGSGAEYKAEWVKGRFTISRDNSKNTLYLQMNSLRAEDTAVYYCASDAGYDYPTHAMHYWGRGTLVTVSS
VL: DIQMTQSPSSLSASVGDRVTITCRASQGISSSLAWYQQKPGKAPKLLIYGASETESGVPSRFSGSGSGTDFTLTISSLQPEDFATYYCQNTKVGSSYGNTFGGGTKVEIK
Turning to B15, the figures for the Kd in the test with human C5 [3] and in the test with human C5 [4] were 79.5 nM and 0.321 nM, respectively.
